{"source": "the nanobody polyreactivity screen of Harvey et al. (2022)"}
{"assay": "yeast display, Sf9 membrane polyspecificity reagent, FACS + sequencing; frameworks hold sequencing errors", "method_in_brief": "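In a synthetic yeast display library (Saccharomyces cerevisiae BJ5465), nanobody expression was induced with galactose for 36–48 hours. FACS gates were set low and high (top ~1%) using anti-HA fluorescence for expression and streptavidin fluorescence for binding of the Sf9 membrane reagent. Each polyreactivity label is drawn from the gate of origin.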"}
{"sequence": "QVQLVESGGGLVQAGGRLRLSCAASGIIFTPYAMGRYRQAPGKERELVAAISWIGGRTYYADSVKGRFTISRDKAKNTVYLQMNSLKPEDTAVYYCAASYRAWSGNYWGQGTQVTVSS", "polyreactivity (PSR sort gate)": "high polyreactivity"}
{"sequence": "QVQLVESGGGLVQAGGRLRLSCAASGITFYDYAMGWYRQAHGKERELVAVITRRGGSTYYAHSVKGRFTISRDNAKNTVYLQMNSLKPEDTAVYYCNADRTAPERYSRVPSSDSWGQGTQVTVSS", "polyreactivity (PSR sort gate)": "high polyreactivity"}
{"sequence": "QVQLVESGGGLVQAGGRLRLSCAASGITSLDNAMGWYRQAPGKQRELVAGIKSGGSTNYADSVKGRFTISRDNAKNTVYLQMNSLKPEDTAVYYCAADDFIGSGRLVARGRYDYWGQGTQVTVSS", "polyreactivity (PSR sort gate)": "low polyreactivity"}
{"sequence": "QVQLVESGGGLVQAGGRLRLSCAASGLIFPAYAMGWYRQAPGKERELVATITWRGGSTYYADSVKGRFTISRDNAKNTVYLQMNSLKPEDTAVDYCATRPRYYYFRYDYWGQGTQVTVSS", "polyreactivity (PSR sort gate)": "high polyreactivity"}
{"sequence": "QVQLVESGGGLVQAGGRLRLSCAASGLIFRAYAMGWYRQAPGKERELVAAISRRGGSTYYADSVKGRFTISRDNAKNTVYLQMNSLKPEDTAVYYCAATSRVSKSHLYGYWGQGTQVTVSS", "polyreactivity (PSR sort gate)": "high polyreactivity"}
{"sequence": "QVQLVESGGGLVQAGGRLRLSCAASGLIFWFNTMGWYRQAPGKERELVAAITSGGGSTYYADSVKGRFTISRDNAKNTVYLQMNSLKPEDTAVYYCNAGAGRWRARQWHDYWGQGTQVTVSS", "polyreactivity (PSR sort gate)": "low polyreactivity"}
{"sequence": "QVQLVESGGGLVQAGGRLRLSCAASGLIFYVYAMGWYRQEPGKERELVASITWSGGRTYYADSVKGRFTISRDNEKNTVYLQMNSLKPEDTAVYYCATDLIQGAAPFRYDYWGQGTQVTVSS", "polyreactivity (PSR sort gate)": "low polyreactivity"}
{"sequence": "QVQLVESGGGLVQAGGRLRLSCAASGLTFGGNAMGWYRQAPGKERELVAAISWSDDTTDYADSVKGLFTISRDNAKNTVYFQMNRLKPEDTAVYYCAARLPFEHVDYWGQGTQVTVSS", "polyreactivity (PSR sort gate)": "low polyreactivity"}
{"sequence": "QVQLVESGGGLVQAGGRLRLSCAASGRIFATNAMGWYRQAPGKERELVATITRSAGRTYYADSVKGRFTISRDNAKNTVYLQMNSLKPEDTAVYYCAADGYSTAVDDTVRYIVEYEFWGQGTQVTVSS", "polyreactivity (PSR sort gate)": "low polyreactivity"}
{"sequence": "QVQLVESGGGLVQAGGRLRLSCAASGRIFDRYAMGWYRQAPGKERELVAGISFSGGRTYYADSVKGRFTISRDNAKNTVYLQMNSLKPEDTAVYYCNTVTSGFLSYDYWGQGTQVTVSS", "polyreactivity (PSR sort gate)": "high polyreactivity"}
{"sequence": "QVQLVESGGGLVQAGGRLRLSCAASGRIFKSNAMGWYRQAPGKERELVATIDVIGTSTYYADSVKGRFTISRDNAKNTVYLQMNSLKPEDTAVYYCAAVGWGGWSDSYDYWGQGTQVTVSS", "polyreactivity (PSR sort gate)": "low polyreactivity"}
{"sequence": "QVQLVESGGGLVQAGGRLRLSCAASGRIFKTNAMGWYRQAPGKERELVPAISKRGGRTYYADSVKGRFTISRDNAKNTVYLQMNSLKPEDTAVYYCATRYSGYSLGDYWGQGTQVTVSS", "polyreactivity (PSR sort gate)": "high polyreactivity"}
{"sequence": "QVQLVESGGGLVQAGGRLRLSCAASGRIFLFYDMGWYRQAPGKERELVATISFRRGSTYYADSVKGRFTISRDNAKNTVYLQMNSLKPEDTAVYYCAKQNKRGYSTSAYYYWGQGTQVTVSS", "polyreactivity (PSR sort gate)": "low polyreactivity"}
{"sequence": "QVQLVESGGGLVQAGGRLRLSCAASGRIFLGNVMGWYRQAPGKERELVAAISSGGSTNYADSVKGRFTISRDNAKNTVYLQMNSLKPEDTAVYYCAAYFVRDWKLYYYWGQGTQVTVSS", "polyreactivity (PSR sort gate)": "low polyreactivity"}
{"sequence": "QVQLVESGGGLVQAGGRLRLSCAASGRIFRGYAMGWYRQAPGKERELVAGITWGGGRTYYADSVKGRFTISRDNAKNTVYLQLNSLKPEDTAVYYCAAYYSQDSRRKYDYWGQGTQVTVSS", "polyreactivity (PSR sort gate)": "high polyreactivity"}
{"sequence": "QVQLVESGGGLVQAGGRLRLSCAASGRIFTYNAMGWYRQAPGKEREFVAAISSGGSTTYADSVKGRFTISRDNAKNTVYLQMNSRKPEDTAVYYCAARGWRFAIIEYEYWGQGTQVTVSS", "polyreactivity (PSR sort gate)": "low polyreactivity"}
{"sequence": "QVQLVESGGGLVQAGGRLRLSCAASGRIFVYYAMGWYRQAPGQERELVAAITYSVDSTYYADSVKGRFTISRDNAKNTVYLQMNSLKPEDTAVYYCATDVDWAYGYQYEYWGQGTQVTVSS", "polyreactivity (PSR sort gate)": "low polyreactivity"}
{"sequence": "QVQLVESGGGLVQAGGRLRLSCAASGRIFYGNAMGRYRPAPVKERELVATISSSGGSTTYADSVKGRFTISRDNAKYTVYLQMNSLKPEDSAVYYCADQGYWTGYDYWGQGSQVTVSS", "polyreactivity (PSR sort gate)": "high polyreactivity"}
{"sequence": "QVQLVESGGGLVQAGGRLRLSCAASGRIFYYYAMGWYRQAPGKERELVAAINRSGGSTYYADSVKGRFTISRDNAKNTVYLQMNSLKPEDTAVYSCASYDYWGQGTQVTVSS", "polyreactivity (PSR sort gate)": "high polyreactivity"}
{"sequence": "QVQLVESGGGLVQAGGRLRLSCAASGRISYYYTMGWYRQAPGKERQLVAAISWSGGTTYYADSVKGRFTISRDNAKNTVYLQMNSLKPEDTAVYYCAAREYYTDVHGTRRYDYWGQGTQVTVSS", "polyreactivity (PSR sort gate)": "low polyreactivity"}
{"sequence": "QVQLVESGGGLVQAGGRLRLSCAASGRTFGRYAMGWYRQAPGKERELVAAITGGVITTYADSVKGRFTISRDNAKNTVYLQMNSLKPEDTAVYYCAARYNVFPSPHYYYWGQGTQVTVSS", "polyreactivity (PSR sort gate)": "low polyreactivity"}
{"sequence": "QVQLVESGGGLVQAGGRLRLSCAASGRTFGVYAMGWYRQSPGKEREFVGVISWSDDSTYYADSVKGRFTISRDNAKNTVYLQMNSLKPEDTAVYYCNADDYLVYSGSHYGYWGQGTQVTVSS", "polyreactivity (PSR sort gate)": "low polyreactivity"}
{"sequence": "QVQLVESGGGLVQAGGRLRLSCAASGRTFKLYAMGWYRQAPGKERELVAAISGRGGSTYYADSVKGRFTISRDNAKNTVYLQMNSLKPEDTAVYYCNWYGKYEYWGQGTQVTVSS", "polyreactivity (PSR sort gate)": "high polyreactivity"}
{"sequence": "QVQLVESGGGLVQAGGRLRLSCAASGRTFRYNAMGGSRQAPGKERELVAAISGGDSTYYADSEKGRFTFSRDNAKNTVYLQMNCLKPEDTAVYYCAGRTYRRRVSQSVSRNDYWGQGTQVTVSS", "polyreactivity (PSR sort gate)": "high polyreactivity"}
{"sequence": "QVQLVESGGGLVQAGGRLRLSCAASGRTFTSNAMGWYRQAPGKERELVAAIDDGGSTNYADSVKGRFTISRDNAKNTVYLQMNSLKPEDTAVYYCNAPITWQYRGFRRRFDYWGQGTQVTVSS", "polyreactivity (PSR sort gate)": "low polyreactivity"}
{"sequence": "QVQLVESGGGLVQAGGRLRLSCAASGRTFVPYAMGWYRQPPGKERELVAAISYSGDSTYYADSEKGRFTISRDNAKNTVYLQMNSLKPEDTAVYYCAARGGNPFYYWGQGTQVTVSS", "polyreactivity (PSR sort gate)": "low polyreactivity"}
{"sequence": "QVQLVESGGGLVQAGGRLRLSCAASGRTFYINTMGWYRQAPGKERELVAAISSSGDSTYYADSVKGRFTISRDNAKNTVYLQMNSLKPEDTAVYYCATDYGWYDYWGQGTQVTVSS", "polyreactivity (PSR sort gate)": "low polyreactivity"}
{"sequence": "QVQLVESGGGLVQAGGRLRLSCAASGRTFYWYAMGWYRQAPGKETELVAAISSGGSTYYADSVKGRFTISRDNAKNTVYLQMNSLKPEDTAVYYCAAVTPSGAHRSAYHPISDYWGQGTQVTVSS", "polyreactivity (PSR sort gate)": "low polyreactivity"}
{"sequence": "QVQLVESGGGLVQAGGRLRLSCAASGRTLATFAMGWSRQAPGKERELVAAITFSGGGSTYYADSVKGRFTISRDNAKNTVYLQMKSLKPEDTADYYCAAGPYYSLFGYGSRDNYRYYYWGQGTQVTVSS", "polyreactivity (PSR sort gate)": "high polyreactivity"}
{"sequence": "QVQLVESGGGLVQAGGRLRLSCAASGRTLSRYAMGWYRQAPGKERELVAAINNGGNTNYADSVKGRFTISRDNAKNTVYLQMNSLKPEDTAVYYCAVRWYPRYGSSYDYWGQGTQVTVSS", "polyreactivity (PSR sort gate)": "high polyreactivity"}
{"sequence": "QVQLVESGGGLVQAGGRLRLSCAASGRTSFDYSMGWYRQAPGKDRELVAAITSTGGSTYYADSVKGRFTISRDNAKYTVYLQMNSLKPEDTAVYYCAAVWFTHWGQYQVLEVLYDYWGQGTQVTVSS", "polyreactivity (PSR sort gate)": "low polyreactivity"}
{"sequence": "QVQLVESGGGLVQAGGRLRLSCAASGRTYYTYAMGWYRQAPGKERELVAAITWDGGSTYYADSVKGRFTISRDNAKNTVYLQMNSLKPEDTAVYYCADDLYDTYGTFDYWGQGTQVTVSS", "polyreactivity (PSR sort gate)": "low polyreactivity"}
{"sequence": "QVQLVESGGGLVQAGGRLRLSCAASGSIFDIYAMGLYRQAPGKERELVASIRRRGGSTYYADSVKGRFTISRDNAKNTVYLQMNSLKPEDTAVYYCNARRVWLRTTGTNWPERGYWGQGTQVTVSS", "polyreactivity (PSR sort gate)": "high polyreactivity"}
{"sequence": "QVQLVESGGGLVQAGGRLRLSCAASGSIFDIYAMGWYRQAPGKERELVASIRRRGGSTYYADSVKGRFTISRDNAKNTVYLQKNSLKPEDTAVYYSNARRVWLRTTGTNWPERGYWGQGTQVTVSS", "polyreactivity (PSR sort gate)": "high polyreactivity"}
{"sequence": "QVQLVESGGGLVQAGGRLRLSCAASGSIFDRYAMGWYRQAPGKERELVAAITRSGGSTYYADSVKGRFTISRDNAKNTVYLQMNSLKPEDTAVYYCNKVYPPRSIPYDFCGQGTQVTVSS", "polyreactivity (PSR sort gate)": "low polyreactivity"}
{"sequence": "QVQLVESGGGLVQAGGRLRLSCAASGSIFGKYAMGWYRQAPGKERELVAAISKGGGRTSYADSVKGRFTISRDNAKNTVYLQMNSLKPEDTAVYYCNRYTQYRDRSDNHWGQGTQVTVSS", "polyreactivity (PSR sort gate)": "high polyreactivity"}
{"sequence": "QVQLVESGGGLVQAGGRLRLSCAASGSIFLHNAMGWYRQAPGKERELVAAISGTGGRTYYADSVKGRFTISRDNAKNTVYLQMNSLKPEDTAVYYCAVVFYHRHSYYWGQGTQVTVSS", "polyreactivity (PSR sort gate)": "high polyreactivity"}
{"sequence": "QVQLVESGGGLVQAGGRLRLSCAASGSIFNRYAMGWYRQAPGKERELVAAISSTGSTYYADSVKGRFTISRDNAKNTVYLQMNSLKPEDTAVYYCNADATHDLLRVDTYEYWGQGTQVTVSS", "polyreactivity (PSR sort gate)": "low polyreactivity"}
{"sequence": "QVQLVESGGGLVQAGGRLRLSCAASGSIFQSYALAWYRQAPGKERELVAVITGGGGSTYYADSVKARFTISRDNAKNTVYLQMNSLKPEDTAVYYCNADFPSFGVIYSTRKDDSWGQGTQVTVSS", "polyreactivity (PSR sort gate)": "low polyreactivity"}
{"sequence": "QVQLVESGGGLVQAGGRLRLSCAASGSIFSKNVMGWYRQAPGKERELVAAISIGGRTYYADSVKGRFTISRDNAKNTVSLQLNSLKPEDTAVYYCNTRFAKRATVGRYDYWGQGTQVTVSS", "polyreactivity (PSR sort gate)": "high polyreactivity"}
